According to paper PMC10557607 (bioRxiv, 2023):

Biological target: the molecule itself
Test: SEC + other: dynamic light scattering

B1: AlbB expressed alone (natural protein, Streptomyces noursei)
chain: MNPGETVLPPQLREEIALLAVYLLSSGRGLLEEPADYGIYRCTDGARRALQLLDEHGGSTARLTAVRERLDEVMFAPMGEDRDMGAILDDLCRQMADALPEIETP
stoichiometry N: 2
